Data reported in patent US20040072753A1 (published 2004).
Where no end group is shown, it is not given here.

B1: EAβBP peptide (ERAB residues 99-108) (peptide, UniProt Q99714 99-108, looked up)
peptide: KTYNLKKGQT
notes: range 99-108; 21 covers only ERAB 101-109; also called EAβBD
B2: Aβ 25-35 (peptide)
peptide: GSNKGAIIGLM
modifications: also: biotinylated in some assays, site not given here
notes: Used both biotinylated and unlabelled; also called biotinylated Aβ 25-35

Legend:
[1] = molecular target: T1, Aβ 1-42 (biotinylated (LinKit-Biolink kit, site not stated) where used as the labelled tracer; unlabelled where used as competitor or in activity assays); assay: competition ELISA, EAβBP-coated plate, Scatchard analysis
T1 construct: catalase and cytotoxicity assays; also called biotinylated Aβ 1-42; Amyloid-β 1-42
Procedure: (§1) After washing to remove unbound material, an alkaline phosphatase polymer-streptavidin conjugate (Sigma, Dorset, UK) was added and incubated at 37° C. for 2 hours. After washing to remove unbound material, p-nitrophenylphosphate substrate was added and absorbance at 405 nm determined.

[2] = molecular target: T2, CAβBP peptide (catalase residues 400-409) (human, UniProt P04040 400-409); assay: ELISA, CAβBP-coated plate
T2 construct: range 400-409; 20 covers only catalase 402-414; also called CAIIBP; CARBP
T2 peptide (looked up): GAPNYYPNSF
Procedure: as §1

[3] = molecular target: B1; assay: ELISA, EAβBP-coated plate
Procedure: as §1

[4] = molecular target: T3, recombinant human cyclin B1 (human, UniProt P14635 1-433, limits assumed); assay: ELISA, cyclin B1-coated plate
T3 construct: Coated on ELISA plates
T3 sequence (P14635 whole entry): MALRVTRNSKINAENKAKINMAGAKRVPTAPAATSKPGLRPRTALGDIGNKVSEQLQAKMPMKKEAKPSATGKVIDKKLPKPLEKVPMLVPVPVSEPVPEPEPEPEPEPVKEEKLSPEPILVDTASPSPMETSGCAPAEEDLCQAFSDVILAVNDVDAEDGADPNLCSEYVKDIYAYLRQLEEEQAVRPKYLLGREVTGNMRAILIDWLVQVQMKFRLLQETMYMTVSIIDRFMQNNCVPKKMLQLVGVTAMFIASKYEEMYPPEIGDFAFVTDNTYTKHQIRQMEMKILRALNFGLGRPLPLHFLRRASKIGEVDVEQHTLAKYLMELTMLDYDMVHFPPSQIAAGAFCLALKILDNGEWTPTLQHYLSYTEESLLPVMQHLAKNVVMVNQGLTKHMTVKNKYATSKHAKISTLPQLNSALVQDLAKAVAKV
Procedure: (§2) ELISA plates were coated with recombinant human cdc2 or the cdc2 119-133 peptide fragment (CDKP1) (1 μg ml⁻¹) in carbonate buffer and unoccupied sites blocked with 5% (w/v) dried milk. […] After washing to remove unbound material, an alkaline phosphatase polymer-streptavidin conjugate (Sigma, Dorset, UK) was added and incubated at 37° C. for 2 hours. After washing to remove unbound material p-nitrophenylphosphate substrate was added and absorbance at 405 nm determined.
Cyclins are co-factors for cdc2 which are required for enzyme activity. These proteins also contain substrate recognition sequences which may play a role in the recruitment of substrate molecules to the active cdc2/cyclin complex. The recombinant cdc2/cyclin enzyme complex used in the above phosphorylation experiments contained cyclin B1. […] Binding assays as described above using cyclin B1 coated plates were carried out.

[5] = molecular target: T4, recombinant human cdc2 (human, UniProt P06493 1-297, limits assumed); assay: ELISA, cdc2-coated plate, biotinylated peptide 200 pM
T4 construct: Coated on ELISA plates at 1 µg/ml; also called p34-cdc2
T4 sequence (P06493 whole entry): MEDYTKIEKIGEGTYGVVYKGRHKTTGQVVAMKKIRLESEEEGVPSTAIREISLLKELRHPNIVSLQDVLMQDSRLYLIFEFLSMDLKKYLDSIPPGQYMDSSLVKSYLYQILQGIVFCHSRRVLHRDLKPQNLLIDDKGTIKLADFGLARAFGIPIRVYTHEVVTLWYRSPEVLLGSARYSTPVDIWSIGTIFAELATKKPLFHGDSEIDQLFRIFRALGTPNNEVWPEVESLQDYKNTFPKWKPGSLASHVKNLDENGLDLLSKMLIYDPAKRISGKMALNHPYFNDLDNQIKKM
Procedure: as §2

Binder: B1
Kd [1]: 107 nM

Binder: VHHQKLVFFAEDVGSNK (also: biotinylated, site not given here, also called biotinylated Aβ 12-28) [Aβ 12-28]
binding result [2]: no binding (tested: 200 pM biotinylated peptide)

Binder: B2
binding result [3]: no binding (tested: 200 pM biotinylated peptide)
binding result [4]: binds
binding result [5]: binds
